Laboratory results published in US20100028995A1, “Tetranectin Trimerizing Polypeptides” (Anaphore, Inc., priority 2004, published 2010).

Test: Differential scanning calorimetry (VP-DSC) of tetranectin trimerisation domain and deletion peptides
Type: physicochemical
Conditions: for TM if N is free: in °C
Experimental: A characterization of the thermal stability of the trimerisation domain of tetranectin was obtained using DSC, both of the full length trimerisation domain and of deletion mutants.
The DSC scans were conducted on a VP-DSC from MicroCal LLC (Northampton, Mass.). For most of the scans a PBS buffer containing 110 mM NaCl and 40 mM NaPO4 was used. The pH was 7.4. The scans were made from 10 to 110° C. under approximately 25 psi at a scan rate of 1° C./min and a pre-scan period of 20 minutes. At least two scans with buffer in both chambers were conducted before removal of buffer from both chambers and the filling with new buffer and protein/peptide solution to the reference and sample chamber respectively.
Peptides were synthesized by an outside vendor and were based on the tetranectin sequence, however, minor modifications were applied. In particular, the residue corresponding to Cys 50 was changed to a Serine. Also, residue number 28 is in native TN polymorphic, being either a Ser or an Ala. In the following experiments, Ala was selected. In addition, the N and C-terminal of the peptides were modified to remove charge and mimic natural peptides, increase stability toward digestion by aminopeptidases and block against synthetase activity. In the N-terminal deletion class peptides the N-terminal is acetylated and the C-terminal is prolonged with a β-Ala and a Cys. For the C-terminal deletion class peptides the modification are amidation of the C-terminal and all the sequences start with Cys-βAla.
Since these peptides were lyophilized from a TFA solution the pH of the redissolved peptides had to be adjusted. This was done using our micro-pH meter from Unisense. The pH was adjusted to the same mV value as found for the buffer by adding small portions of 0.2 M NaOH to the solution immediately followed by mixing. In order to prevent disulphide-bridge dimerisation and possible stabilization of the multimeric structures all scanning of peptides were conducted in 5 mM β-mercaptoethanol. Prior to scanning and addition of β-mercaptoethanol the sample and buffer were extensively degassed under vacuum while stirring.
Trip-A (SEQ ID NO:42) was scanned at concentrations ranging from 2 mM to 0.125 mM, by lowering the concentration by a factor 2. This corresponds to protein concentrations from 12.7 mg-ml to 0.80 mg/mL. […] The difference between the two-state model and the non-2-state model can be stated as that the non-2-state model contains a contribution to the unfolding energy from co-operative stabilization of subunits. This leads to a sharpening of the peak. The parameter introduced relative to the 2-state model is called the ΔHv, or the van't Hoff enthalpy. The ratio between ΔHv and ΔH can be taken as a measurement of the number of subunits in one unfolding unit. The result is shown on FIG. 13 and Table 6. The data is from one representative scan and fitted to the non-2-state model.
The “dissociation with dCp” model describes a system where unfolding and dissociation of a multisubunit protein is simultaneous. The data is from one representative scan and fitted to the “dissociation with dCp” model. The ΔHm and dCp value is per trimer.

[1] = Trip-A 0.125 mM, dissociation with dCp model
[2] = Trip-A 0.125 mM, dissociation with dCp model, per trimer
[3] = Trip-A 0.125 mM, non-2-state model, PBS pH 7.4
[4] = Trip-A 0.25 mM, dissociation with dCp model
[5] = Trip-A 0.25 mM, dissociation with dCp model, per trimer
[6] = Trip-A 0.25 mM, non-2-state model, PBS pH 7.4
[7] = Trip-A 0.5 mM, Down, first scan
[8] = Trip-A 0.5 mM, Down, first scan, per trimer
[9] = Trip-A 0.5 mM, Down, sec. scan, per trimer
[10] = Trip-A 0.5 mM, Up, first scan, per trimer
[11] = Trip-A 0.5 mM, Up, second scan, per trimer
[12] = Trip-A 0.5 mM, dissociation with dCp model
[13] = Trip-A 0.5 mM, dissociation with dCp model, per trimer
[14] = Trip-A 0.5 mM, non-2-state model, PBS pH 7.4
[15] = Trip-A 1.0 mM, dissociation with dCp model
[16] = Trip-A 1.0 mM, dissociation with dCp model, per trimer
[17] = Trip-A 1.0 mM, non-2-state model, PBS pH 7.4
[18] = Trip-A 2.0 mM, dissociation with dCp model
[19] = Trip-A 2.0 mM, dissociation with dCp model, per trimer
[20] = Trip-A 2.0 mM, non-2-state model, PBS pH 7.4

Trip-A: full length trimerisation domain of tetranectin (SEQ ID NO:42) (SPGTEPPTQKPKKIVNAKKDVVNTKMFEELKARLDTLSQEVALLKEQQALQTVSLKGS)
Rev. (%) (Table 10, N-terminal deletion peptides, Conc per construct): 97.6%
ΔHm (kJ/mol(trimer)) (Table 10, N-terminal deletion peptides, dissociation with dCp model, Conc per construct): 319.2 ± 0.4 kJ/mol(trimer)
TM (° C.) (Table 10, N-terminal deletion peptides, dissociation with dCp model, PBS pH 7.4, Conc per construct 0.32-0.63 (column Conc)): 84.7 ± 0.1 °C
dCp (kJ/molK) (Table 10, N-terminal deletion peptides, per trimer, Conc per construct): 0.7 ± 0.1 kJ/molK
Rev. (%) (Table 11, C-terminal deletion peptides, Conc per construct): 97.6%
ΔHm (kJ/mol(trimer)) (Table 11, C-terminal deletion peptides, dissociation with dCp model, Conc per construct): 319.2 ± 0.4 kJ/mol(trimer)
TM (° C.) (Table 11, C-terminal deletion peptides, dissociation with dCp model, PBS pH 7.4, Conc per construct 0.4-0.63 (column Conc)): 84.7 ± 0.1 °C
dCp (kJ/molK) (Table 11, C-terminal deletion peptides, per trimer, Conc per construct): 0.7 ± 0.1 kJ/molK
Rev. (%) [1]: 98.9%
TM (° C.) (N = 3) [1]: 82.2 ± 0.3 °C
N (free) [1]: 1.88
TM if N is free [1]: 78.9 ± 0.3
dCp (kJ/molK) [2]: 2.4 ± 0.2 kJ/molK
ΔHm [2]: 277.0 ± 1.9 kJ/mol
Reversibility (%) [3]: 94.2%
TM (° C.) [3]: 73.1 ± 0.03 °C
ΔH [3]: 63.7 ± 0.2 kJ/mol
ΔHv [3]: 177.9 ± 0.6 kJ/mol
ΔHv/ΔH [3]: 2.8
Rev. (%) [4]: 98.2%
TM (° C.) (N = 3) [4]: 81.4 ± 0.1 °C
N (free) [4]: 2.48
TM if N is free [4]: 81.2 ± 0.1
dCp (kJ/molK) [5]: 3.3 ± 0.1 kJ/molK
ΔHm [5]: 284.5 ± 0.7 kJ/mol
Reversibility (%) [6]: 95.6%
TM (° C.) [6]: 75.9 ± 0.1 °C
ΔH [6]: 53.3 ± 0.4 kJ/mol
ΔHv [6]: 192.6 ± 1.7 kJ/mol
ΔHv/ΔH [6]: 3.6
Rev. (%) [7]: 68.9%
TM (° C.) (Trip-A 0.5 mM, Down, first scan (refolding), dissociation with dCp model): 79.8 ± 0.1 °C
N (free) [7]: 0.66
TM if N is free [7]: 81.4 ± 0.4
dCp (kJ/molK) [8]: 3.5 ± 0.1 kJ/molK
ΔHm [8]: -249.0 ± 1.3 kJ/mol
Rev. (%) (Trip-A 0.5 mM, Down, sec. scan): 85.6%
TM (° C.) (Trip-A 0.5 mM, Down, sec. scan (refolding), dissociation with dCp model): 80.2 ± 0.2 °C
N (free) (Trip-A 0.5 mM, Down, sec. scan): 1.45
TM if N is free (Trip-A 0.5 mM, Down, sec. scan): 85.6 ± 0.3
dCp (kJ/molK) [9]: 6.9 ± 0.1 kJ/molK
ΔHm [9]: -171.5 ± 2.2 kJ/mol
Rev. (%) (Trip-A 0.5 mM, Up, first scan): 94.2%
N (free) (Trip-A 0.5 mM, Up, first scan): 2.13
TM if N is free (Trip-A 0.5 mM, Up, first scan): 84.0 ± 0.1
TM (° C.) (Trip-A 0.5 mM, Up, first scan, dissociation with dCp model): 82.3 ± 0.1 °C
dCp (kJ/molK) [10]: 1.7 ± 0.1 kJ/molK
ΔHm [10]: 288.3 ± 0.6 kJ/mol
Rev. (%) (Trip-A 0.5 mM, Up, second scan): 94.0%
N (free) (Trip-A 0.5 mM, Up, second scan): 3.7
TM if N is free (Trip-A 0.5 mM, Up, second scan): 80.3 ± 0.1
TM (° C.) (Trip-A 0.5 mM, Up, second scan, dissociation with dCp model): 81.7 ± 0.1 °C
dCp (kJ/molK) [11]: 2.0 ± 0.1 kJ/molK
ΔHm [11]: 271.5 ± 0.3 kJ/mol
Rev. (%) [12]: 97.6%
TM (° C.) (N = 3) [12]: 84.7 ± 0.1 °C
N (free) [12]: 3.93
TM if N is free [12]: 83.5 ± 0.1
dCp (kJ/molK) [13]: 0.67 ± 0.01 kJ/molK
ΔHm [13]: 319.2 ± 0.4 kJ/mol
Reversibility (%) [14]: 94.1%
TM (° C.) [14]: 81.4 ± 0.1 °C
ΔH [14]: 48.6 ± 0.4 kJ/mol
ΔHv [14]: 232.6 ± 2.4 kJ/mol
ΔHv/ΔH [14]: 4.8
Rev. (%) [15]: 97.6%
TM (° C.) (N = 3) [15]: 83.2 ± 0.1 °C
N (free) [15]: 2.21
TM if N is free [15]: 86.0 ± 0.1
dCp (kJ/molK) [16]: 0.58 ± 0.02 kJ/molK
ΔHm [16]: 303.3 ± 0.6 kJ/mol
Reversibility (%) [17]: 97.7%
TM (° C.) [17]: 86.5 ± 0.1 °C
ΔH [17]: 36.9 ± 0.6 kJ/mol
ΔHv [17]: 272.2 ± 5.4 kJ/mol
ΔHv/ΔH [17]: 7.4
Rev. (%) [18]: 95.6%
TM (° C.) (N = 3) [18]: 85.2 ± 0.4 °C
N (free) [18]: 5.67
TM if N is free [18]: 77.0 ± 0.5
dCp (kJ/molK) [19]: −7.1 ± 0.5 kJ/molK
ΔHm [19]: 384.5 ± 3.4 kJ/mol
Reversibility (%) [20]: 105 (!) %
TM (° C.) [20]: 90.4 ± 0.1 °C
ΔH [20]: 32.4 ± 0.3 kJ/mol
ΔHv [20]: 279.9 ± 3.5 kJ/mol
ΔHv/ΔH [20]: 8.6
Rev (%) (Trip-A, pH 3.0): 93.1%
TM (° C.) (Trip-A, pH 3.0 (100 mM NaCl 25 mM NaPO4)): 84.6 ± 0.2 °C
dCp (kJ/molK) (Trip-A, pH 3.0, per trimer): 11.9 ± 0.3 kJ/molK
ΔHm (Trip-A, pH 3.0, per trimer): 297.9 ± 2.9 kJ/mol
Rev (%) (Trip-A, pH 4.0): 88.1%
TM (° C.) (Trip-A, pH 4.0 (100 mM NaCl 25 mM NaAcetat)): 82.6 ± 0.1 °C
dCp (kJ/molK) (Trip-A, pH 4.0, per trimer): 0.12 ± 0.07 kJ/molK
ΔHm (Trip-A, pH 4.0, per trimer): 294.1 ± 0.9 kJ/mol
Rev (%) (Trip-A, pH 7.4): 97.6%
TM (° C.) (Trip-A, pH 7.4): 84.7 ± 0.1 °C
dCp (kJ/molK) (Trip-A, pH 7.4, per trimer): 0.67 ± 0.05 kJ/molK
ΔHm (Trip-A, pH 7.4, per trimer): 319.2 ± 0.4 kJ/mol
Tm values (across concentrations 0.125-2 mM, dissociation with dCp model): 81-85 °C
ΔHm (across concentrations, dissociation with dCp model): approximately 300 kJ/mole
stability to pH (scans at pH 3.0, 4.0 and 7.4): exhibits stability to pH
